From article PMC11008599 (Frontiers in Immunology, 2024)

Assays:
human IL-2 [1] = target: T1, human IL-2 (human, UniProt P60568 21-153); assay: SPR; […], Biacore 8K+; […]; HBS-EP+; […]; conditions: both partners purified
T1 construct: The source is told for the ELISA; nothing else is said for the SPR

human IL-2 [2] = target: T1, human IL-2; assay: SPR; multicycle kinetics, Biacore 8K+; knob domain constructs immobilised on a CM5 chip via amine coupling, IL-2 in solution; HBS-EP+; two-state binding model, only the fastest association and the slowest dissociation rate constants reported; conditions: both partners purified

T1 sequence (P60568 21-153): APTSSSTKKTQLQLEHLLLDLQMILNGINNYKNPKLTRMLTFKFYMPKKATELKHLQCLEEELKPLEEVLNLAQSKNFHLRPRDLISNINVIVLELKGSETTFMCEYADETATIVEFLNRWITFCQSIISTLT

Binder	Kd (human IL-2 [1]) [nM]	Kd (human IL-2 [2]) [nM]
aIL2_1-SNV-N (other, also called aIL2_1, SNV-N framework; not shown: His8, C-terminal, kept) LKEVQDNIGSSCPESYRFHSDRWSRNCCIPDSWDDSYVWNCDHYAVRPAIGSLKRELADL	9.4	
aIL2_1-BECN1 (other, bovine (knob domain), also called aIL2_1, BECN1 framework; not shown: His8, C-terminal, kept) YQREYSEFKRQQLELDDELGSSCPESYRFHSDRWSRNCCIPDSWDDSYVWNCDHYAVRPAIGSLIQELEDVEKNRKIVAENL		10.8
